# Results taken from patent US20210155689A1 (SHANGHAI PHARMAEXPLORER, published 2021).
# Numbering of substitutions follows the chain as printed.
# T1: human LAG-3 (full length, on the cell surface) (human, UniProt P18627 23-525)
# T1 construct: Full-length human LAG-3 expressed on cells; also called HEK293-hLAG-3; HEK293 cells transfected with LAG-3 gene
# T1 sequence: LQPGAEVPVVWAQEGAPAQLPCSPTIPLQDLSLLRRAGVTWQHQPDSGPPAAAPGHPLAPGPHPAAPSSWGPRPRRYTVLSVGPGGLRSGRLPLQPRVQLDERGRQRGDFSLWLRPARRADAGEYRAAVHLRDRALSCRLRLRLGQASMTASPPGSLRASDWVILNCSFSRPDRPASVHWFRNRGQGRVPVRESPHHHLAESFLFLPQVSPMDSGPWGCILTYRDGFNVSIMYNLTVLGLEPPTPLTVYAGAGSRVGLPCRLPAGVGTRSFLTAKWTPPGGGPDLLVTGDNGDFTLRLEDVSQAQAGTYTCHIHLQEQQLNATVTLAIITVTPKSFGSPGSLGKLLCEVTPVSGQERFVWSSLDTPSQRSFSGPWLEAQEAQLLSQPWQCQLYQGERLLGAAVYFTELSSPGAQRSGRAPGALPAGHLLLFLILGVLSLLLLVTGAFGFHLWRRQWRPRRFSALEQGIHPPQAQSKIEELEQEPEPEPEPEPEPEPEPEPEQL
# T2: human LAG-3 on cells (HEK293-hLAG-3 stable cell line) (human, UniProt P18627 23-525)
# T2 sequence: T1 sequence
# T3: hFc tagged monkey LAG-3 protein (cLAG-3-hFc protein) (monkey; human)
# T3 construct: Made in HEK293 cells; also called monkey LAG-3 extracellular domain protein; not shown: human IgG Fc fragment (hFc) of the pCpC vector
# T3 chain: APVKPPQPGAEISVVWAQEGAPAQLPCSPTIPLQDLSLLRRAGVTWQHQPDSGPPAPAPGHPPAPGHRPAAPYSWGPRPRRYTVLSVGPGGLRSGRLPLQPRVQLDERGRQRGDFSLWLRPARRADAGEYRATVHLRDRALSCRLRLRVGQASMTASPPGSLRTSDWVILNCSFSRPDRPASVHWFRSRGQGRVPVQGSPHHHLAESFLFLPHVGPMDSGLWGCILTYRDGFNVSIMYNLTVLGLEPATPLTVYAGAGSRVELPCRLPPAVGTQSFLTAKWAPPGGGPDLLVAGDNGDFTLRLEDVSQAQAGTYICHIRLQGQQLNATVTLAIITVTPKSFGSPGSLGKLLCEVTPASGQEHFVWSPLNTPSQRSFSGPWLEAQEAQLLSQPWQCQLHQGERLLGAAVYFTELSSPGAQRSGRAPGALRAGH
# B1: 556F6B8 (mouse antibody purified from hybridoma) (antibody, V domains shown)
# VH: RVQLKQSGPGLVQPSQSLSITCTVSGFSLIKYGVHWVRQSPGEGLEWLGVIWRGGITDYNAAFMSRLSITKDNSKSQVFFKMNSLQADDTAIYYCAKWDGPLAMDYWGQGTSVTVSS
# VL: DIVMTQSHKFLSTSVGDRVSITCKASQDVGTTVAWYQQKPGQSPKLLIYWASTRHTGVPDRFTGSGSGTDFTLTISNVQSEDLADYFCQQYSSYPYTFGGGTKLEIK
# notes: also called mAb123-556F6B8
# B2: 405B8H3 (mouse antibody purified from hybridoma) (antibody, V domains shown)
# VH: QVQLQQSGAELVRPGASVTLSCKASGYTFTDYEMHWVKQTPVHGLEWIGATDPETGNSAYNQKFKGKAIMTADKSSSTAYMELRSLTSEDSAVYYCISTGWNDWGQGTSLTVSS
# VL: DIKMTQSPSSMYASLGERVTITCKASQDINSYLSWFQQKPGKSPKTLIYRADRLLDGVPSRFSGSGSGQDYSLTISSLEYGDMGIYYCLQYDEFPYTFGGGTKLEIK
# notes: also called mAb103-405B8H3; 405B81-13
# B3: 105F1E10 (mouse antibody purified from hybridoma) (antibody, V domains shown)
# VH: EVQLQQSGPELVKPGASVKMSCRASGYTFTDFKMHWMKQSHGKSLEWIGYIAPNNGGTAYNQKFRGKATLTVNESSNTAYMELRSLTSEDSAVYYCVDWDDVDYWGQGTTLTVSS
# VL: B2 VL with P40S, D52N, L55V, G81E, D92V, Y96L, G100A, I106L
# notes: also called mAb009-105F1E10
# B4: 409D4E10 (mouse antibody purified from hybridoma) (antibody, V domains shown)
# VH: B2 VH with Y27N, G56D, S58T, M70L, A72T, S98T, T99S
# VL: B2 VL with D52N, G81E, D92N
# notes: also called mAb112-409D4E10
# B5: 409B11E12 (mouse antibody purified from hybridoma) (antibody, V domains shown)
# VH: B2 VH with P41T, G56S, N57Y, M70L, S98A
# VL: B2 VL with I2L, D52N, G81E
# notes: also called mAb104-409B11E12
# B6: 556F6B8 mouse-human chimeric antibody (antibody, V domains shown)
# VH: B1 VH
# VL: B1 VL
# notes: also called mAb123-556F6B8; 556F8B8
# B7: 405B8H3 mouse-human chimeric antibody (antibody, V domains shown)
# VH: B2 VH
# VL: B2 VL
# notes: also called mAb103-405B8H3
# B8: 105F1E10 mouse-human chimeric antibody (antibody, V domains shown)
# VH: B3 VH
# VL: B2 VL with P40S, D52N, L55V, G81E, D92V, Y96L, G100A, I106L
# notes: also called mAb009-105F1E10
# B9: 409D4E10 mouse-human chimeric antibody (antibody, V domains shown)
# VH: B2 VH with Y27N, G56D, S58T, M70L, A72T, S98T, T99S
# VL: B2 VL with D52N, G81E, D92N
# notes: also called mAb112-409D4E10
# B10: 409B11E12 mouse-human chimeric antibody (antibody, V domains shown)
# VH: B2 VH with P41T, G56S, N57Y, M70L, S98A
# VL: B2 VL with I2L, D52N, G81E
# notes: also called mAb104-409B11E12
# B11: 105F1E10 (LAG-3 mouse-human chimeric antibody) (antibody, V domains shown)
# VH: B3 VH
# VL: B2 VL with P40S, D52N, L55V, G81E, D92V, Y96L, G100A, I106L
# Biological target: T1, human LAG-3 (full length, on the cell …)
# Experiment: FACS, HEK293-hLAG-3; 0.013 nM
# From the text: The pIRES plasmid with the monkey-derived full-length gene was transfected into the HEK293 cell line to construct a HEK293 stable cell line containing monkey LAG-3 (herein referred to as HEK293-cLAG-3 stable cell line). The HEK293-hLAG-3 stable cell line and HEK293-cLAG-3 stable cell line were expanded in a T-75 cell culture flask to a 90% confluence. The medium was aspirated, and the cells were washed with HBSS (Hanks' Balanced Salt Solution) 1-2 times, then treated with a enzyme-free cell dissociation fluid (Versene solution: Life technology) and the cells were collected. The cells were washed with HBSS buffer for 1-2 times. After counted, the cells were diluted with HBSS to 1-2×10⁶ cells per ml, added with 1% goat serum blocking solution, incubated on ice for 20-30 minutes, and then washed with HBSS for 2 times by centrifugation. The collected cells were suspended in the FACS buffer (HBSS+1% BSA) to 2×10⁶ cells/ml, added as 100 microliters per well to a 96-well FACS reaction plate, added with 100 microliters per well of the antibody sample to be tested, incubated on ice for 1-2 hours. The plate was washed twice with the FACS buffer by centrifugation, added with 100 microliters of fluorescent (Alexa 488)-labeled secondary antibodies per well, and incubated on ice for 0.5-1.0 hours. The plate was washed 2-3 times with FACS buffer by centrifugation, added with 100 μl fixative solution (4% Paraformaldehyde) per well to suspend the cells. 5-10 minutes later, it was washed 1-2 times with FACS buffer by centrifugation. The cells were suspended with 100 microliters of FACS buffer, FACS (FACSCalibur, BD) was used for detection and the results were analyzed.
row,Binder,Mean fluorescence intensity [MFI]
1,B1,3.6
2,B2,5
3,B3,5
4,B4,3.3
5,B5,2.9

# Biological target: T2, human LAG-3 on cells (HEK293-hLAG-3 …)
# Experiment: cell-based or functional assay
Binder,"IL-2 production, SEB-dependent PBMC stimulation test, 0.0032 ug/ml, N = 1 [pg/mL]","IL-2 production, SEB-dependent PBMC stimulation test, 0.0032 ug/ml, N = 2 [pg/mL]","IL-2 production, SEB-dependent PBMC stimulation test, 0.016 ug/ml, N = 1 [pg/mL]","IL-2 production, SEB-dependent PBMC stimulation test, 0.016 ug/ml, N = 2 [pg/mL]","IL-2 production, SEB-dependent PBMC stimulation test, 0.08 ug/ml, N = 1 [pg/mL]","IL-2 production, SEB-dependent PBMC stimulation test, 0.08 ug/ml, N = 2 [pg/mL]","IL-2 production, SEB-dependent PBMC stimulation test, 0.4 ug/ml, N = 1 [pg/mL]","IL-2 production, SEB-dependent PBMC stimulation test, 0.4 ug/ml, N = 2 [pg/mL]","IL-2 production, SEB-dependent PBMC stimulation test, 2 ug/ml, N = 1 [pg/mL]","IL-2 production, SEB-dependent PBMC stimulation test, 2 ug/ml, N = 2 [pg/mL]"
B6,1780,1910,1430,2010,1780,1980,2570,2810,3800,4010
B7,2000,1600,1880,1770,1800,1840,2790,3240,2700,2850
B8,2340,1840,1720,1520,2130,1770,2550,2570,3970,3660
B9,1660,1240,1250,1450,1630,1420,2170,2160,2770,1940
B10,1340,1190,1720,1230,1550,1530,2820,1990,2540,1920

# Same assay, conditions: not given
Binder,"IL-2 production, SEB-dependent PBMC stimulation test, 10 ug/ml, N = 1 [pg/mL]","IL-2 production, SEB-dependent PBMC stimulation test, 10 ug/ml, N = 2 [pg/mL]"
B6,2610,3260
B7,3280,3160
B8,3740,3650
B9,2740,2100
B10,3140,3010

# Biological target: T3, hFc tagged monkey LAG-3 protein …
# Experiment: ELISA, cLAG-3-hFc coated; 0.0000 nM
# Experimental: The plate was sealed with plastic film and incubated overnight at 4° C. The plate was washed 2 times with the plate washing solution (PBS+0.01% Tween20) on the next day, and added with the blocking solution (PBS+0.01% Tween20+1% BSA) and blocked at room temperature for 1-2 hours. The blocking solution was poured out, and the plate was added with 50-100 μl of the antibody sample to be tested to each well, incubated at 37° C. for 1-2 hours, and washed 2-3 times with a plate washing solution (PBS+0.01% Tween20). HRP (horseradish peroxidase) labeled secondary antibody was added, and the plate was incubated at 37° C. for 1-2 hours, and washed 2-3 times with a plate washing solution (PBS+0.01% Tween20). 100 μl of TMB substrate was added to each well. After incubated at room temperature for 15-30 minutes, the plate was added with 100 μl of stop solution (1.0N HCl) to each well.
row,Binder,OD450 [OD450]
1,B11,0.15
